By stoichiometry N is commonly meant a count of units in the complex or per binding partner.

This note sets out measurements from article PMC11338831.

The target of experiment [1] is SlNRC2-Twin-Strep-HA (Solanum lycopersicum (tomato)). Put plainly: native gel or EMSA; Blue Native-PAGE (3-12% Bis-Tris) of SlNRC2-Twin-Strep-HA variants eluted from Strep-Tactin XT resin out of nrc2/3/4 N. benthamiana leaf extract; immunoblot. Background: In EMSA bound probe runs differently from free probe, usually more slowly.
Experiment [2] has as its target Solanum lycopersicum (tomato) NRC2, full-length, purified from insect cells (Solanum lycopersicum (tomato)). Put plainly: cryo-EM structure; apparently dimeric SlNRC2 specimen, 0.7 mg ml^-1; dimer at 2.84 Å and tetramer at 3.17 Å from one data set, C2 symmetry.
Experiment [3] has the same target. Put plainly: SEC; gel filtration of purified SlNRC2 after removal of MBP; Buffer E (10 mM Tris-HCl pH 8.0, 150 mM NaCl, 1 mM dithiothreitol); Superdex 200 Increase 10/300 GL. (In general: Size exclusion chromatography separates by hydrodynamic size, large species first.)

Several values for one entry are separate records, joined by “and”; a condition that tells them apart may be missing. Equal entries are not always repeated.

Turning to SlNRC2-Twin-Strep-HA (natural protein), in experiment [1], the stoichiometry N is 2 and 4.
With “Solanum lycopersicum (tomato) NRC2, full-length, purified from insect cells (natural protein)”, the stoichiometry N in experiment [2] was 2 and 4; in experiment [3] it was 2.
